The values below come from patent US20170218047A1, “NOVEL FUSION PARTNERS FOR THE PURPOSE OF CRYSTALLIZING G-PROTEIN COUPLED RECEPTORS” (THE SCRIPS RESEARCH INSTITUTE, priority 2011, published 2017).

Series [1] is described as follows: Fluorescence (CPM) thermostability assay of β2AR constructs. The class given is physicochemical. Conditions: 100 μM timolol; for thermostability: more stable than β2AR-T4L: increase relative to β2AR-T4L; for thermostability: less stable relative to β2AR-T4L: decrease relative to β2AR-T4L. The method, then:
N-[4-(7-diethylamino-4-methyl-3-coumarinyl)phenyl]maleimide (CPM) dye was purchased from Invitrogen and dissolved in DMSO (Sigma) at 4 mg/mL as the stock solution for future use. The stock solution was kept at −80° C. and was diluted 1:40 in dye dilution solution (10 mM buffer, 500 mM NaCl, 10% glycerol, 0.025% DDM and 0.005% CHS) before use. The thermal denaturation assay was performed with total volume of 200 μL sample in a quartz fluorometer cuvette (Starna Cells, Inc., Atascadero, Calif.). Receptor (4 μg) was diluted in the appropriate buffer solution to a final volume of 200 μL, 5 μL of the diluted dye was added to the protein solution and incubated for 30 min at 4° C. The mixed solution was transferred to the cuvette and the data were collected by a Cary Eclipse spectrofluorometer (Varian, USA) with a temperature ramping rate at 2° C./min. The excitation wavelength was 387 nm and the emission wavelength was 463 nm. All assays were performed over a temperature range starting from 20° C. and 95° C. The stability data were processed with GraphPad Prism program (GraphPad Prism, Graphpad Software, San Diego, Calif., USA). In order to determine the melting temperature (Tm), a Boltzmann sigmoidal equation was used to fit to the data.
The thermostability of the different β2AR constructs was then evaluated. Assays were carried out in the presence of 100 μM timolol to maintain receptor stability during heating. […] We thus selected β2AR-BRIL and β2AR rubredoxin for further crystallization studies.

Series [2] can be described thus: Size exclusion chromatography (SEC) of purified S1P1-fusion partner proteins. Conditions: presence or absence of ligand. The class given is physicochemical. The method, then:
S1P1-fusion partner proteins (“S1P1 fusion receptors”) were purified from membranes by dodecyl-maltoside (DDM) extraction followed by immobilized metal affinity chromatography (IMAC) on Talon resin (Clontech) as detailed below. Frozen cellular membranes were thawed by adding room temperature lysis buffer to a total volume of 25 mL. The S1P1 receptor antagonist W146 was added to a final concentration of 125 μM. The mixture was allowed to incubate at room temperature for 1 hour to ensure complete saturation of the receptor with ligand followed by addition of iodoacetamide to a concentration of 1 mg/mL and an additional 1 hour incubation at 4° C. Receptor solubilization was initiated by addition of detergent and cholesteryl hemisuccinate (CHS) to achieve a final concentration of 0.5% DDM 0.1% CHS. The solubilization buffer consisted of the following mixture: 50 mM Hepes pH 7.5; 800 mM NaCl; 30 mM Imidazole; 0.1% DDM 0.02% CHS; 125 μM W146. […]
Eluted proteins were analyzed by size-exclusion chromatography (SEC) followed by SDS-PAGE. […] SEC fractions corresponding to S1P1-fusion partner proteins were evaluated separated by SDS-PAGE on a 10% gel and stained, confirming that each S1P1-fusion partner protein could be purified to near-homogeneity (data not shown).
Background: Size exclusion chromatography separates by hydrodynamic size, large species first.

As for “132AR-rubredoxin: β2-adrenergic receptor fused with rubredoxin, SEQ ID NO: 11”, in series [1], the “thermostability: more stable than β2AR-T4L” value was “approximately 8 °C”.

Regarding “S1P1-Bril: S1P1 receptor with cytochrome b562 RIL replacing part of ICL3, SEQ ID NO: 2”, the “stability by SEC (in words)” value in series [2] was “stable in the presence or absence of ligand”. Take “β2AR xylanase: β2-adrenergic receptor fused with xylanase, SEQ ID NO: 12”: the “thermostability: more stable than β2AR-T4L” value in series [1] was “about 3 °C”.

As for “β2AR-BRIL: β2-adrenergic receptor with cytochrome b562 RIL replacing the third intracellular loop, SEQ ID NO: 10”, the “thermostability: more stable than β2AR-T4L” value in series [1] is “approximately 8 °C”. For “β2AR-C-term T4L: β2-adrenergic receptor fused with T4 lysozyme C-terminal fragment, SEQ ID NO: 9”, the “thermostability: less stable relative to β2AR-T4L” value in series [1] was roughly 4 °C. In the case of “β2AR-flavodoxin: β2-adrenergic receptor fused with flavodoxin in place of T4L, SEQ ID NO: 13”, the “thermostability: less stable relative to β2AR-T4L” value in series [1] was “about 9 °C”.
